Molecular target: T1, LPE1 (mature, without transit peptide) (Arabidopsis thaliana, UniProt Q9SNB7 69-665)
T1 sequence: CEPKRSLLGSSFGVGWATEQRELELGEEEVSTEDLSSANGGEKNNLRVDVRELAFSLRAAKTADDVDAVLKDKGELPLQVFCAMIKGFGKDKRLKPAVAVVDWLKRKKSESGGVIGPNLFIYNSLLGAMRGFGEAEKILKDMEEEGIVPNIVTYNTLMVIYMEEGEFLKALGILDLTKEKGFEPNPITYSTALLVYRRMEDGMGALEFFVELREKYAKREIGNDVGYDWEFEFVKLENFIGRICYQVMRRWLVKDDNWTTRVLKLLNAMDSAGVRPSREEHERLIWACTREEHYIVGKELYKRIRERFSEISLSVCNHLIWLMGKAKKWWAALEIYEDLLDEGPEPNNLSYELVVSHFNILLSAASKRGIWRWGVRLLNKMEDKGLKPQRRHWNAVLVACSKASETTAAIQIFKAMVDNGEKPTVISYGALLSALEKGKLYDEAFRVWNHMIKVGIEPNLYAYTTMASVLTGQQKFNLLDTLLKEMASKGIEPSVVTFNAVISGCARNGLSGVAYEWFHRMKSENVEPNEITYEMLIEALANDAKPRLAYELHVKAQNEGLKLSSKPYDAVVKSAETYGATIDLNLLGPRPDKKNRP
Assay: EMSA

B1: psbA 5' UTR probe (full length, first 82 nt) (ssRNA)
RNA: UUCAUAACAAGCUCUCAAUUAUCUACUUAGAGAAUUUGUGCGCUUGGAGUCCCUGAUUAUUAAAUAAACCAAGGAUUUUACC
binding result: binds
